Target: T1, recombinant ECD of EGFR (UniProt P00533 25-645)
T1 construct: Epidermal growth factor receptor, recombinant extracellular domain immobilised for SPR; Source, limits and tags may be told in the Supplemental Methods
Assay: SPR; BIAcore S200, room temperature; recombinant ECD of EGFR immobilised on a CM5 chip by amine coupling; purified rCGA injected at 30 μL/min for 60 seconds, dissociation 100 seconds; 1:1 Langmuir binding model
Conditions: both partners purified

B1: recombinant human CGA (glycoprotein hormone α polypeptide), 6×His tag removed (natural protein)
chain: not shown
notes: Glycoprotein hormones alpha chain (CGA), human; CGA ORF in a modified pHL-sec vector, secreted protein; engineered enterokinase site at the C-terminus before the 6×His tag; Made in mammalian cells; Residues of the enterokinase site may be left at the C-terminus after digestion; also called rCGA; α-subunit of glycoprotein hormones; not shown: His6, C-terminal, cleaved
Kd: 11.8 µM

— paper PMC8920335, “A CGA/EGFR/GATA2 positive feedback circuit confers chemoresistance in gastric cancer” (The Journal of Clinical Investigation, 2022)
